Data set [1] deals with T1, thrombin (alpha-thrombin) (Homo sapiens, UniProt P00734;P00734 P00734:315-363,P00734:364-622). Kind of data set: filter.
Data set [2] concerns the target thrombin (endogenous, in vivo, ACT of whole blood) (Macaca fascicularis, UniProt A0A2K5UZ51;A0A2K5UZ51 A0A2K5UZ51:325-360,A0A2K5UZ51:361-619). Kind of data set: inhibition; maximum ACT in monkey, IV bolus 0.46 umol/kg.
The target of data set [3] is T2, thrombin (endogenous, clotting assay in plasma or whole blood) (Homo sapiens, UniProt P00734;P00734 P00734:328-363,P00734:364-622). Nature of the data set: inhibition; PT at 10 uM.
The target of data set [4] is T1, thrombin (alpha-thrombin). Nature of the data set: filter; NB, non binder.
The target in data set [5] is T2, thrombin (endogenous, clotting assay in …). Nature of the data set: inhibition; PT at 10 uM, parent 300 s.
Data set [6] has the same target. Kind of data set: inhibition; PT at 10 uM, instrument maximum.
The target is the same in data set [7]. Nature of the data set: inhibition; PT at 10 uM. The source holds these as a separate data set.
For data set [8] the target is unchanged. Kind of data set: inhibition; ACT at 10 uM aptamer.
A further data set deals with prothrombin (Homo sapiens, UniProt P00734 P00734:44-622). Nature of the data set: filter; 50 nM prothrombin. The conditions noted are these: tags: Athens Research. Put shortly:
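Trace 5′-³²P-labeled RNA clones incubated ±50 nM prothrombin with 0.1 mg/ml BSA in 1×DPBS (with Ca²⁺/Mg²⁺), 30 min. Bound RNA captured on nitrocellulose, free RNA on nylon; filters quantified by phosphorimaging. Single-point screen.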

For data set [9], the target named is T2, thrombin (endogenous, clotting assay in …). Kind of data set: inhibition; PT at 10 uM. This is another data set of the same source.
Data set [10] concerns the target T1, thrombin (alpha-thrombin). Kind of data set: filter; DPBS Ca2+ Mg2+, 0.1 mg/ml BSA.
Data set [11] deals with T2, thrombin (endogenous, clotting assay in …). Nature of the data set: inhibition; ACT at 10 uM.

Here are results for 36 molecules from patent US20090221680, “Aptamers that bind thrombin with high affinity” (published 2009).

B1: ARC2169 (ssDNA)
DNA: ACTGCCTAGGTTGGGTAGGGTGGTGGCAGT
On to B1, for which binding in [1] was characterised by a dissociation constant (Kd) of 0.135 nM. Further, the activity in data set [2] was found to be 542 s.

B2: AMX(454)_F9 (ssDNA)
DNA: TCCCTGCATCGAGCCTCTATGGGATGGTTTGGGTGGCTGAGGATCGATC
With B2, the activity in data set [3] came out at 25 s.

B3: AMX(454)_H3 (ssDNA)
DNA: TCCCATCGATCTGGGGTAGTTTTATTGGGTTGGGTGGCTGAGGATCGATC
On to B3, for which the activity in [3] was 35.4 s.

B4: ARC2624 (XNA)
mixed: ACTGCCTAGGTUGGGTAGGGTGGTGGCAGT
modifications: 2'-OMe U12, rest DNA
On to B4, for which the binding result in data set [4] was “no binding”.

B5: Minimer 11 (ssDNA)
DNA: CCGGCTAGGTTGGGTAGGGTGGTGGCTGG
Regarding B5, the activity in data set [5] came out at 27.9 s.

B6: AMX(453)_B6 (ssDNA)
DNA: TCCCATCGAGCTCAGTCTAGGATGGGTAGGGTGGTGGCTGAGGATCGATC
Molecule B6 displayed an activity in [6] of 300 s.

B7: ARC2169.1 (ssDNA)
DNA: ACTGCCTAGGATGGGTAGGGTGGTGGCAGT
Consider B7, for which, in data set [7], the activity was 300 s.

B8: ARC2194 (ssDNA)
DNA: TTTTTTCTGCCTAGGTTGGGTAGGGTGGTGGCAG
The molecule B8 displayed an activity in [8] of 462 s.

B9: AMX(398)_C10 (ssDNA)
DNA: TCCCGAGCGATACTGCCTAGGCTGGGTAGGGTGGTGGCTGAGGATCGATC
In the case of B9, the binding signal in the data set with prothrombin came out at 40.9 % bound. For the same molecule, the activity in data set [9] worked out at 58.8 s. Besides, in [10], the Kd came out at 3.27 nM.

B10: AMX(454)_F2 (ssDNA)
DNA: TCCCGAGCGATATTGCCTAGGTTGGGTAGGGTGGTGGCTGAGGATCGATC
Regarding B10, the activity in data set [6] is 300 s.

B11: AMX(399)_C11 (ssDNA)
DNA: TCCCGAGGGACGACGCCTAGGTTGGGTAGGGTGGTGGCTGAGGATCGATC
With B11, in the data set with prothrombin, the binding signal amounted to 41.6 % bound. In addition, the activity in data set [9] stood at 52.6 s. In [10], this molecule yielded a Kd of 1.74 nM.

B12: AMX(398)_D9 (ssDNA)
DNA: TCCCATGAACTCAGGGTAATTTTTTGGTGTGGGTGGCTGAGGATCGATC
Turning to B12, in the data set with prothrombin, the binding signal is 41.8 % bound. Further, the activity in data set [9] was 80.8 s. Also, in data set [10], the affinity, expressed as Kd, was 5.64 nM.

B13: ARC2169.4 (ssDNA)
DNA: ACTGCCTAGGTTGGGTAGGATGGTGGCAGT
In data set [7], B13 yielded an activity of 53.8 s.

B14: ARC2169.7 (ssDNA)
DNA: ACTGCATAGGTTGGGTAGGGTGGTGGCAGT
Molecule B14 yielded an activity in data set [7] of 300 s.

B15: ARC2169.8 (ssDNA)
DNA: ACTGCATAGGTTGGGTAGGGTGGTGCAGT
For the molecule B15, the activity in data set [7] is 28.7 s.

B16: ARC2188 (ssDNA)
DNA: TTTTTTCCTCAGGGATGGTGTGGGTGGCTGAGG
Regarding B16, the activity in data set [8] was 426 s.

B17: ARC2193 (ssDNA)
DNA: TTTCTGCCTAGGTTGGGTAGGGTGGTGGCAG
In turn, B17 had an activity in data set [8] of 545 s.

B18: ARC2190 (ssDNA)
DNA: TTTTTTCCTCAGGGATGGTGTGGGTGGCTGAGGTTTTTT
Molecule B18 gave an activity in data set [8] of 389 s.

B19: Minimer 3 (ssDNA)
DNA: GGTTGGGTAGGGTGG
On to B19, for which the activity in data set [5] amounted to 25.8 s.

B20: AMX(398)_C5 (ssDNA)
DNA: TCCCCGATGTGTCAGCCTAGGGTGGTTAGGGTGGTGGCTGAGGATCGATC
The molecule B20 returned a binding signal in the data set with prothrombin of 19.2 % bound. Also, the activity in data set [9] was found to be 64.7 s. The molecule further had a Kd in data set [10] of 2.2 nM.

B21: AMX(399)_F12 (ssDNA)
DNA: TCCCGATTGGAAAGCCTAGGATGGGTAGGGTGGTGGCTGAGGATCGATC
In the data set with prothrombin, B21 came in with a binding signal of 48.2 % bound. Also, the activity in data set [9] is 74.9 s. The same molecule yielded a dissociation constant (Kd) in data set [10] of 0.66 nM.

B22: ARC2196 (ssDNA)
DNA: TTTTTTCTGCCTAGGTTGGGTAGGGTGGTGGCAGTTTTTT
B22 showed an activity in [8] of 441 s.

B23: AMX(453)_F6 (ssDNA)
DNA: TCCTGATCGGATGTGGTGGGTTATTGGTTTGGGTGGCTGAGGATCGATC
In data set [6], B23 returned an activity of 300 s.

B24: ARC2949 (ssDNA)
DNA: CGCTAGGTTGGGTAGGGTGGTGCG
modifications: 2'-OMe at positions 1, 2, 23, 24
In turn, B24 came in with an activity in data set [2] of 403 s.

B25: ARC2324 (ssDNA)
DNA: CGCCTAGGTTGGGTAGGGTGGTGGCG
modifications: 5'-hexylamine
B25 yielded an activity in data set [11] of 424 s.

B26: ARC2633 (XNA)
mixed: ACTGCCTAGGTTGGGTAGGGUGGTGGCAGT
modifications: 2'-OMe U21, rest DNA
Regarding B26, in data set [4], the binding result is listed as “no binding”.

B27: AMX(398)_H5 (ssDNA)
DNA: TCCCATCTTCTGTAGCCTAGGTTGGGTAGGGTGGTGGCTGAGGATCGATC
Molecule B27 came in with an activity in data set [9] of 71 s.

B28: ARC2169.2 (ssDNA)
DNA: ACTGCCTAGGGTGGGTAGGGTGGTGGCAGT
On to B28, for which the activity in [7] is 300 s.

B29: Minimer 7 (ssDNA)
DNA: GGCCGATCAGGCTAGGTTGGGTAGGGTGGTGGCTGAGGATCGGCC
Turning to B29, the activity in [5] amounted to 83.3 s.

B30: ARC2169.6 (ssDNA)
DNA: ACTGCATAGGTTGGGTAGGGTGGTTGCAGT
For the molecule B30, in data set [7], the activity came out at 300 s.

B31: ARC2329 (ssDNA)
DNA: CGCCTAGGTTGGGTAGGGTGGTGGCG
modifications: 5'-PEG 10 kDa via hexylamine
Molecule B31 showed an activity in data set [11] of 664 s.

B32: ARC2189 (ssDNA)
DNA: TTTCCTCAGGGATGGTGTGGGTGGCTGAGGTTT
As to B32, the activity in data set [8] was 410 s.

B33: ARC2192 (ssDNA)
DNA: CTGCCTAGGTTGGGTAGGGTGGTGGCAGTTTTTT
In the case of B33, the activity in data set [8] was 423 s.

B34: ARC2195 (ssDNA)
DNA: TTTCTGCCTAGGTTGGGTAGGGTGGTGGCAGTTT
In [8], B34 gave an activity of 438 s.

B35: ARC2191 (ssDNA)
DNA: CTGCCTAGGTTGGGTAGGGTGGTGGCAGTTT
B35: the activity in [8] turned out to be 453 s.

B36: ARC2323 (ssDNA)
DNA: ACTGCCTAGGTTGGGTAGGGTGGTGGCAGT
modifications: 5'-PEG 10 kDa via hexylamine
B36 showed an activity in data set [11] of 514 s.
